Results as given in patent US20250019427A1 (BYOMASS, published 2025).
Substitutions are numbered along the chain they refer to. Where “and” joins values, the source holds several entries; their conditions need not be identical. Equal values may be shown once. One block for each binder: values may come before it.

Experiments:
GDF15 = target: T1, GDF15 (Homo sapiens (Human), UniProt Q99988 30-308); test: cell-based or functional assay
T1 sequence: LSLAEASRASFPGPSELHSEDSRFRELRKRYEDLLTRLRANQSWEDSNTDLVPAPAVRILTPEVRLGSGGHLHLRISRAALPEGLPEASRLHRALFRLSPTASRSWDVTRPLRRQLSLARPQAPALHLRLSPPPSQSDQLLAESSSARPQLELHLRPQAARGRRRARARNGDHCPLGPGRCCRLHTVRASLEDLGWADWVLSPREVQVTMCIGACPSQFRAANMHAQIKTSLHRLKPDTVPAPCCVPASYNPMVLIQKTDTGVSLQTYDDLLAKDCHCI

Mouse GDF15 Fc = target: T2, Mouse GDF15 Fc (mouse, UniProt Q9Z0J7 189-303, limits assumed); test: Octet BLI, Fab monovalent
T2 construct: also called mouse GDF15Fc fusion
T2 sequence (looked up): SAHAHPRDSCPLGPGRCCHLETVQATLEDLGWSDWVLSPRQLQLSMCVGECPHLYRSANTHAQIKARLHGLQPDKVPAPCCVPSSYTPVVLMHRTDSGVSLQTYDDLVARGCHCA

Cyno GDF15 Fc = target: T3, Cyno GDF15 Fc (cyno, UniProt G7PWZ3 193-308); test: Octet BLI, Fab monovalent
T3 construct: also called cyno GDF15-Fc fusion
T3 sequence: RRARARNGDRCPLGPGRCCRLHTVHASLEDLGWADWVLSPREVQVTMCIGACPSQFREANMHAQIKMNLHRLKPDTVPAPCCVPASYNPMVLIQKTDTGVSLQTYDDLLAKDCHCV

GDF8 = GDF8 (UniProt O14793 267-375); test: Octet BLI, IgG on tip, avid
GDNF = target: T4, GDNF (UniProt P39905 78-211); test: Octet BLI, IgG on tip, avid
T4 sequence (looked up): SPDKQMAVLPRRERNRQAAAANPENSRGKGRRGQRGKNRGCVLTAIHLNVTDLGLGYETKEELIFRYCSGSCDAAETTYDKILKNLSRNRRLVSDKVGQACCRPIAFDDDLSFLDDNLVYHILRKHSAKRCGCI

Human Activin A Fc = target: T5, Human Activin A Fc (human, UniProt P08476 311-426); test: Octet BLI, IgG on tip, avid
T5 sequence (looked up): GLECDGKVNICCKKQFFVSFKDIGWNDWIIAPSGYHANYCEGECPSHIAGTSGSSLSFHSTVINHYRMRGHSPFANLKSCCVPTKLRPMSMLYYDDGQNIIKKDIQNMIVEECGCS

GDF11 = target: T6, GDF11 (UniProt O95390 299-407); test: Octet BLI, IgG on tip, avid
T6 construct: Also the GDF-11 ligand of the ActRIIB/SMAD reporter assay

Human BMP10 = target: T7, Human BMP10 (human, UniProt O95393 317-424); test: Octet BLI, IgG on tip, avid
T7 sequence (looked up): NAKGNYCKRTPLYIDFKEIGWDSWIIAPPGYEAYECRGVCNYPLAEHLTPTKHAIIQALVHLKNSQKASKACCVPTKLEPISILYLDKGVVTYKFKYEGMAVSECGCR

Human Activin B = target: T8, Human Activin B (human, UniProt P09529 293-407); test: Octet BLI, IgG on tip, avid
T8 construct: Also used for the Activin B ligand of the ActRIIB/SMAD reporter assay, where the species is not restated
T8 sequence (looked up): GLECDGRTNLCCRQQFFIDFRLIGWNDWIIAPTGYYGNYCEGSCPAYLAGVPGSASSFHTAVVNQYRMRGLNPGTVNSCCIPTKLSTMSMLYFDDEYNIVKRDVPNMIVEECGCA

T6 sequence (O95390 299-407 limits assumed): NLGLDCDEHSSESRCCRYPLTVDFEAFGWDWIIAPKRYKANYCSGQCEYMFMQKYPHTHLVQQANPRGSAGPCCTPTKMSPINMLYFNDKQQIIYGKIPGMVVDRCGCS

GDF15 GFRAL RET pERK Fab IC50 pM (GDF15): 322 pM
Kd (Mouse GDF15 Fc): 2.56 nM
B1: Clone N Fab (Fab, V domains shown)
VH: QVQLVQSGAEVKKPGASVKVSCKASGYTFTDYGIFWVRQAPGQGLEWMGWITAYSGDTHYAQKLQGRVTMTTDTSTSTAYMELRSLRSDDTAVYYCVRDTQYGGSPYWGQGTLVTVSS
VL: EIVMTQSPATLSVSPGERATLSCRASQSVSSNLAWYQQKPGQAPRLLIYGASTRATGIPARFSGSGSGTEFTLTISSLQSEDFAVYYCQQYNNWPITFGGGTKVEIK
notes: Fab format

GDF15 GFRAL RET pERK Fab IC50 pM (GDF15): 75.1 pM
Kd (Cyno GDF15 Fc): 0.769 nM
B2: Clone J Fab (Fab, V domains shown)
VH: QVQLVQSGAEVKKPGASVKVSCKASGYTFTSYGINWVRQAPGQGLEWMGWIDAYSGSTNYAQKLQGRVTMTTDTSTSTAYMELRSLRSDDTAVYYCARGPGQYADVDVWGQGTMVTVSS
VL: DIQMTQSPSSVSASVGDRVTITCRASQGISSWLAWYQQKPGKAPKLLIYAASSLQSGVPSRFSGSGSGTDFTLTISSLQPEDFATYYCQQANSFPITFGGGTKVEIK
notes: Fab format

GDF15 GFRAL RET pERK Fab IC50 pM (GDF15): 701 pM and 1000 pM
Kd (Cyno GDF15 Fc): 1.72 nM
B3: Clone P Fab (Fab, V domains shown)
VH: QVQLVQSGAEVKKPGATVKVSCKASGYTFDSYGIHWVRQAPGQGLEWMGWITAYSGDTVYAQKLQGRVTMTTDTSTSTAYMELRSLRSDDTAVYYCARESGQTSSALGPWGQGTLVTVSS
VL: B2 VL with S31R, A91G, N92A, I96L
notes: Fab format

Kd (Mouse GDF15 Fc): 1.36 nM
Kd (Cyno GDF15 Fc): 0.252 nM
B4: Clone S Fab (Fab, V domains shown)
VH: B2 VH with D52T, S57D
VL: B2 VL with M4L, S31P
notes: Fab format

GDF15 GFRAL RET pERK Fab IC50 pM (GDF15): 30.9 pM
Kd (Cyno GDF15 Fc): 0.349 nM
B5: Clone B Fab (Fab, V domains shown)
VH: QVQLQESGPGLVKPSQTLSLTCTVSGGSISSGGIYWTWIRQHPGKGLEWIGAIAYSGSTYYNPSLKSRVTISVDTSKNQFSLKLSSVTAADTAVYYCARGIEYQHFDYWGQGTLVTVSS
VL: not shown
notes: Fab format

Kd (Mouse GDF15 Fc): 204 nM
Kd (Cyno GDF15 Fc): 0.327 nM
B6: Clone Q Fab (Fab, V domains shown)
VH: B5 VH
VL: not shown
notes: Fab format

Kd (Mouse GDF15 Fc): 234 nM
Kd (Cyno GDF15 Fc): 0.366 nM
B7: Clone R Fab (Fab, V domains shown)
VH: B5 VH with K66E
VL: not shown
notes: Fab format

GDF15 GFRAL RET pERK Fab IC50 pM (GDF15): 26.5 pM
Kd (Cyno GDF15 Fc): 0.536 nM
B8: Clone A Fab (Fab, V domains shown)
VH: B5 VH with S30T, I34S, T37S, A54V, I101V
VL: not shown
notes: Fab format; also called Fab of Clone A

GDF15 - GFRAL RET pERK IC50 (pM) (GDF15): 34.9 pM
GDF15 - GFRAL-RET Luciferase IC50 (pM) (GDF15): 91.3 pM
binding result (GDF8): no binding (tested: 100 nM)
binding result (GDNF): no binding (tested: 100 nM)
binding result (Human Activin A Fc): no binding (tested: 100 nM)
binding result (GDF11): no binding (tested: 100 nM)
binding result (Human BMP10): no binding (tested: 100 nM)
binding result (Human Activin B): no binding (tested: 100 nM)
B9: Clone F IgG (antibody, V domains shown)
VH: QVQLVQSGAEVKKPGSSVKVSCKASGGTFGGYAISWVRQAPGQGLEWMGGIIPPYATANYAQKFQGRVTITADESTSTAYMELSSLRSEDTAVYYCARGVGTTHLDVWGQGTMVTVSS
VL: not shown
notes: IgG format

GDF15 GFRAL RET pERK Fab IC50 pM (GDF15): 33.2 pM
Kd (Cyno GDF15 Fc): 0.474 nM
B10: Clone G Fab (Fab, V domains shown)
VH: B9 VH with G30Q, V37A, T102E, T103L
VL: not shown
notes: Fab format
